Data: the supplement of paper PMC6757056
± gives the standard deviation of the averaged measurements.

B1: library; a variant is named by its letters at N, in order (parent)
chain: GCUGUCACCGGUGUAUUACCCUAGUGGUCGACCGGUCUGAUGAGUCUNNNNNNAGACGAAACAGC

How the values were obtained:
hypoxanthine [1] = variants of: B1; assay: normalized RNA/DNA level with ligand (relative to sTRSVctl = 100) (log10 (% of sTRSVctl)); ligand: hypoxanthine (xanthine aptamer); higher = less ribozyme self-cleavage, higher mRNA level; conditions: ligand concentration (+) RNA-Seq: 5 mM, HEK293T, reporter: mCherry (pCS4076), ligand present: yes
Summary of the method: (§1)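 Total RNA, extracted with EDTA 72 h after HEK293T cells were transfected with 4 µg per 6-well well of reporter-linked ribozyme switch library plasmids, was reverse-transcribed, amplified, barcoded and sequenced. Ligand, if used, was added 1 h before transfection. RNA level was derived from RNA reads divided by DNA reads and normalized to a spiked-in non-cleaving sequence or to the top sequences. This was multiplied by 100 and log10-transformed, with the top set of 25 sequences and a ≥100 DNA read minimum.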

hypoxanthine [2] = variants of: B1; assay: normalized RNA/DNA level without ligand (relative to sTRSVctl = 100) (log10 (% of sTRSVctl)); ligand: hypoxanthine (xanthine aptamer); higher = less ribozyme self-cleavage, higher mRNA level; conditions: HEK293T, reporter: mCherry (pCS4076), ligand present: no
Summary of the method: as §1

Row | Variant | normalized RNA/DNA level with ligand (log10) (hypoxanthine [1]) | normalized RNA/DNA level without ligand (log10) (hypoxanthine [2])
1 | GCUGUCACCGGUGUAUUACCCUAGUGGUCGACCGGUCUGAUGAGUCUCGGGCAAGACGAAACAGC [CGGGCA] | 1.98 ± 0.049 | 1.8985 ± 0.0018
2 | GCUGUCACCGGUGUAUUACCCUAGUGGUCGACCGGUCUGAUGAGUCUGGGGCAAGACGAAACAGC [GGGGCA] | 1.941 ± 0.011 | 1.911 ± 0.01
3 | GCUGUCACCGGUGUAUUACCCUAGUGGUCGACCGGUCUGAUGAGUCUUGGGCAAGACGAAACAGC [UGGGCA] | 1.938 ± 0.014 | 1.84 ± 0.056
4 | GCUGUCACCGGUGUAUUACCCUAGUGGUCGACCGGUCUGAUGAGUCUCGGGCCAGACGAAACAGC [CGGGCC] | 1.944 ± 0.0098 | 1.99 ± 0.026
5 | GCUGUCACCGGUGUAUUACCCUAGUGGUCGACCGGUCUGAUGAGUCUUGGGCCAGACGAAACAGC [UGGGCC] | 1.96 ± 0.04 | 2.019 ± 0.012
6 | GCUGUCACCGGUGUAUUACCCUAGUGGUCGACCGGUCUGAUGAGUCUAGGGCCAGACGAAACAGC [AGGGCC] | 1.98 ± 0.024 | 1.98 ± 0.04
7 | GCUGUCACCGGUGUAUUACCCUAGUGGUCGACCGGUCUGAUGAGUCUCGGGCGAGACGAAACAGC [CGGGCG] | 1.973 ± 0.012 | 1.76 ± 0.024
8 | GCUGUCACCGGUGUAUUACCCUAGUGGUCGACCGGUCUGAUGAGUCUGGGGCGAGACGAAACAGC [GGGGCG] | 1.93 ± 0.057 | 1.748 ± 0.0076
9 | GCUGUCACCGGUGUAUUACCCUAGUGGUCGACCGGUCUGAUGAGUCUUGGGCGAGACGAAACAGC [UGGGCG] | 1.96 ± 0.043 | 1.8 ± 0.042
10 | GCUGUCACCGGUGUAUUACCCUAGUGGUCGACCGGUCUGAUGAGUCUUGGGCUAGACGAAACAGC [UGGGCU] | 2.05 ± 0.031 | 1.974 ± 0.019
11 | GCUGUCACCGGUGUAUUACCCUAGUGGUCGACCGGUCUGAUGAGUCUAGGGCUAGACGAAACAGC [AGGGCU] | 1.99 ± 0.027 | 1.874 ± 0.018
12 | GCUGUCACCGGUGUAUUACCCUAGUGGUCGACCGGUCUGAUGAGUCUCGGGGAAGACGAAACAGC [CGGGGA] | 1.97 ± 0.097 | 1.76 ± 0.035
13 | GCUGUCACCGGUGUAUUACCCUAGUGGUCGACCGGUCUGAUGAGUCUGGGGGAAGACGAAACAGC [GGGGGA] | 1.8897 ± 0.00058 | 1.77 ± 0.1
14 | GCUGUCACCGGUGUAUUACCCUAGUGGUCGACCGGUCUGAUGAGUCUAGGGGAAGACGAAACAGC [AGGGGA] | 1.908 ± 0.015 | 1.61 ± 0.053
15 | GCUGUCACCGGUGUAUUACCCUAGUGGUCGACCGGUCUGAUGAGUCUUGGGGCAGACGAAACAGC [UGGGGC] | 1.99 ± 0.025 | 1.94 ± 0.0063
16 | GCUGUCACCGGUGUAUUACCCUAGUGGUCGACCGGUCUGAUGAGUCUCGGGGGAGACGAAACAGC [CGGGGG] | 1.86 ± 0.032 | 1.25 ± 0.059
17 | GCUGUCACCGGUGUAUUACCCUAGUGGUCGACCGGUCUGAUGAGUCUGGGGGGAGACGAAACAGC [GGGGGG] | 1.94 ± 0.03 | 1.65 ± 0.049
18 | GCUGUCACCGGUGUAUUACCCUAGUGGUCGACCGGUCUGAUGAGUCUUGGGGGAGACGAAACAGC [UGGGGG] | 1.883 ± 0.0071 | 1.57 ± 0.054
19 | GCUGUCACCGGUGUAUUACCCUAGUGGUCGACCGGUCUGAUGAGUCUCGGGGUAGACGAAACAGC [CGGGGU] | 1.99 ± 0.0036 | 1.908 ± 0.0053
20 | GCUGUCACCGGUGUAUUACCCUAGUGGUCGACCGGUCUGAUGAGUCUUGGGGUAGACGAAACAGC [UGGGGU] | 1.915 ± 0.017 | 1.64 ± 0.034
21 | GCUGUCACCGGUGUAUUACCCUAGUGGUCGACCGGUCUGAUGAGUCUAGGGGUAGACGAAACAGC [AGGGGU] | 1.855 ± 0.0023 | 1.61 ± 0.032
